# Residue numbers refer to the chain shown, from its start. Names and notes keep the numbering of the source.
# T1: FcγRIIa R type extracellular domain, His tag (human, UniProt P12318 34-217)
# T1 construct: extracellular domain; also called FcgRIIaR
# T1 sequence (looked up): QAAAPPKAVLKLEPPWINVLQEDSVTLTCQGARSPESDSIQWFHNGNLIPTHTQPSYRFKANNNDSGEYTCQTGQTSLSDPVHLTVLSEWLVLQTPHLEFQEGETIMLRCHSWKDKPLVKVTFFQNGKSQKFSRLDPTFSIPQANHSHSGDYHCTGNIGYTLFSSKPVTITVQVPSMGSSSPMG
# T2: FcγRIIb extracellular domain, His tag (human, UniProt P31994 43-217)
# T2 construct: extracellular domain; also called FcgRIIb
# T2 sequence (looked up): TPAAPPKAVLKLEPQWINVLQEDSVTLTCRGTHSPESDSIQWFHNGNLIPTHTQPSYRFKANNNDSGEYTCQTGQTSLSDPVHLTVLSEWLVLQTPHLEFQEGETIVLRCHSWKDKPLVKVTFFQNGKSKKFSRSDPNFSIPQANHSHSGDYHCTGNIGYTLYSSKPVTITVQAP
# T3: FcgRIIaR (human, UniProt P12318 34-217)
# T3 construct: extracellular domain; also called FcγRIIa R type; FcγRIIa (R type)
# T3 sequence (looked up): T1 sequence (looked up)
# T4: FcgRIIb (human, UniProt P31994 43-217)
# T4 construct: extracellular domain; also called FcγRIIb
# T4 sequence (looked up): T2 sequence (looked up)
# T5: FcγRIIa R type extracellular domain with C-terminal His tag (human, UniProt P12318 34-217)
# T5 construct: extracellular domain; also called FcgRIIaR; not shown: His tag at the C terminus
# T5 sequence (looked up): T1 sequence (looked up)
# T6: FcγRIIb extracellular domain with C-terminal His tag (human, UniProt P31994 43-217)
# T6 construct: extracellular domain; also called FcgRIIb; not shown: His tag at the C terminus
# T6 sequence (looked up): T2 sequence (looked up)
# B1: IL6R-2B137/IL6R-L (antibody, human IgG1, kappa)
# heavy: QVQLQESGPGLVKPSETLSLTCAVSGHSISHDHAWSWVRQPPGEGLEWIGFISYSGITNYNPSLQGRVTISRDNSKNTLYLQMNSLRAEDTAVYYCARSLARTTAMDYWGEGTLVTVSSASTKGPSVFPLAPSSKSTSGGTAALGCLVKDYFPEPVTVSWNSGALTSGVHTFPAVLQSSGLYSLSSVVTVPSSSLGTQTYICNVNHKPSNTKVDKKVEPKSCDKTHTCPPCPAPELLGGDSVFLFPPKPKDTLMISRTPEVTCVVVDVSHEDPEVKFNWYVDGVEVHNAKTKPREEQNNSTYRVVSVLTVLHQDWLNGKEYKCKVSNKALPAPIEKTISKAKGQPREPQVYTLPPSRDELTKNQVSLTCLVKGFYPSDIAVEWESNGQPENNYKTTPPVLDSDGSFFLYSKLTVDKSRWQQGNVFSCSVMHEALHNHYTQESLSLSP
# light: not shown
# B2: IL6R-2B118/IL6R-L (antibody, human IgG1, kappa)
# heavy: B1 heavy with Q297M, N298Y
# light: not shown
# B3: IL6R-2B132/IL6R-L (antibody, human IgG1, kappa)
# heavy: B1 heavy with N298H
# light: not shown
# B4: IL6R-BP321/IL6R-L (antibody, human IgG1, kappa, name in EU numbering)
# heavy: B1 heavy with E235D, G239D, D267N, H270E, P273G, N298Y
# light: not shown
# B5: IL6R-BP267/IL6R-L (antibody, human IgG1, kappa)
# heavy: B1 heavy with E235D, G239D, H270E, P273G, N298Y
# light: not shown
# notes: IL6R-BF648 with E233D/G237D/H268E/P271G
# B6: IL6R-BP324/IL6R-L (antibody, human IgG1, kappa, name in EU numbering)
# heavy: B1 heavy with E235D, G239D, D267R, H270E, P273G, N298Y
# light: not shown
# B7: IL6R-BP318/IL6R-L (antibody, human IgG1, kappa, name in EU numbering)
# heavy: B1 heavy with E235D, G239D, D267K, H270E, P273G, N298Y
# light: not shown
# B8: IL6R-BP325/IL6R-L (antibody, human IgG1, kappa, name in EU numbering)
# heavy: B1 heavy with E235D, G239D, D267S, H270E, P273G, N298Y
# light: not shown
# B9: IL6R-BP365/IL6R-L (antibody, human IgG1, kappa, name in EU numbering)
# heavy: B1 heavy with E235D, G239D, S269Y, H270E, P273G, N298Y
# light: not shown
# B10: IL6R-PD031/IL6R-L (antibody, human IgG1, kappa)
# heavy: B1 heavy with L236H, M254Y, N298Y, N436Y, E441K
# light: not shown
# notes: human IgG1
# B11: IL6R-PD072/IL6R-L (antibody, human IgG1, kappa)
# heavy: B1 heavy with G238Q, M254Y, N298Y, N436Y, E441K
# light: not shown
# notes: human IgG1
# B12: IL6R-PD044/IL6R-L (antibody, human IgG1, kappa)
# heavy: B1 heavy with L237A, M254Y, N298Y, N436Y, E441K
# light: not shown
# notes: human IgG1
# B13: IL6R-PD033/IL6R-L (antibody, human IgG1, kappa)
# heavy: B1 heavy with L236K, M254Y, N298Y, N436Y, E441K
# light: not shown
# notes: human IgG1
# B14: IL6R-PD090/IL6R-L (antibody, human IgG1, kappa)
# heavy: B1 heavy with G239R, M254Y, N298Y, N436Y, E441K
# light: not shown
# notes: human IgG1
# B15: IL6R-PD026/IL6R-L (antibody, human IgG1, kappa)
# heavy: B1 heavy with L236A, M254Y, N298Y, N436Y, E441K
# light: not shown
# notes: human IgG1
# B16: IL6R-PD035/IL6R-L (antibody, human IgG1, kappa)
# heavy: B1 heavy with L236N, M254Y, N298Y, N436Y, E441K
# light: not shown
# notes: human IgG1
# B17: IL6R-PD038/IL6R-L (antibody, human IgG1, kappa)
# heavy: B1 heavy with L236R, M254Y, N298Y, N436Y, E441K
# light: not shown
# notes: human IgG1
# B18: IL6R-F652/IL6R-L (antibody, human IgG1, kappa)
# heavy: B1 heavy with M254Y, N298Y, N436Y, E441K
# light: not shown
# notes: human IgG1
# B19: IL6R-PD085/IL6R-L (antibody, human IgG1, kappa)
# heavy: B1 heavy with G239K, M254Y, N298Y, N436Y, E441K
# light: not shown
# notes: human IgG1
# Target: T1, FcγRIIa R type extracellular domain, …
# Experiment: SPR, bound amount per captured antibody
row,Binder,Relative FcgRIIaR-binding Activity
1,B1,77.7 % of IL6R-BF648/IL6R-L
2,B2,93.4 % of IL6R-BF648/IL6R-L
3,B3,66.9 % of IL6R-BF648/IL6R-L

# Target: T2, FcγRIIb extracellular domain, His tag
# Experiment: SPR, bound amount per captured antibody
row,Binder,Relative FcgRIIb-binding Activity
1,B1,98.3 % of IL6R-BF648/IL6R-L
2,B2,96.3 % of IL6R-BF648/IL6R-L
3,B3,89.1 % of IL6R-BF648/IL6R-L

# Target: T3, FcgRIIaR
# Experiment: SPR, amount bound per captured antibody
row,Binder,Relative FcgRIIaR-binding Activity
1,B4,16.3 IL6R-BP267/IL6R-L=100
2,B5,100 IL6R-BP267/IL6R-L=100
3,B6,3.7 IL6R-BP267/IL6R-L=100
4,B7,4.3 IL6R-BP267/IL6R-L=100
5,B8,11.6 IL6R-BP267/IL6R-L=100

# Target: T4, FcgRIIb
# Experiment: SPR, amount bound per captured antibody
row,Binder,Relative FcgRIIb-binding Activity
1,B4,31.7 IL6R-BP267/IL6R-L=100
2,B5,100 IL6R-BP267/IL6R-L=100
3,B6,3.2 IL6R-BP267/IL6R-L=100
4,B7,2.3 IL6R-BP267/IL6R-L=100
5,B8,21 IL6R-BP267/IL6R-L=100
6,B9,16.7 IL6R-BP267/IL6R-L=100

# Target: T5, FcγRIIa R type extracellular domain …
# Experiment: SPR; amount bound divided by amount of IL6R-F652/IL6R-L bound, x100
row,Binder,Relative FcgRIIaR-binding Activity
1,B10,41.8
2,B11,20.6
3,B12,37.7
4,B13,11.2
5,B14,7.9
6,B15,67.2
7,B16,44.4
8,B17,7.8
9,B18,100
10,B19,0.5

# Target: T6, FcγRIIb extracellular domain with …
# Experiment: as above
row,Binder,Relative FcgRIIb-binding Activity
1,B10,27.6
2,B11,10.4
3,B12,7.9
4,B13,6.2
5,B14,23.7
6,B15,37.2
7,B16,38.3
8,B17,5.4
9,B18,100
10,B19,11.8

# From patent US20220411483A1 (Chugai, published 2022)
